{"source": "patent US8501695B2", "about": "“Tissue kallikrein for the treatment of diseases associated with amyloid protein” (DiaMedica, Inc., priority 2007, dated 2013)", "key": {"[1]": {"system": "rat mixed cortical cultures (RMCC)", "assay": "Aβ1-42 toxicity in rat mixed cortical cultures, LDH measurement", "format": "cell-based", "method": "(§1) Whether pre-treatment with tissue kallikrein protects rat mixed cortical cultures against exposure to human amyloid beta peptide (Aβ1-42) was investigated. Cell death was analyzed by LDH-release, an indication of necrosis, and cell viability was also analyzed by neuronal cell count. First (Study Arm A), tissue kallikrein was added to the cells only prior to the Aβ1-42 insult (at −24 h and at −30 min). Whereas in the second part (Study Arm B), tissue kallikrein was added to the cells prior to (−30 min) and also at +24 h after the Aβ1-42 insult. At the +24 h time point, cell culture media were not changed (tissue kallikrein or corresponding amount of vehicle was added to the wells), whereas at −24 h and −30 min time point cell culture media were changed.\n(§2) […] Cell Culture. Mixed cortical cultures were prepared from E18 Wistar rat embryos (National Animal Center, Kuopio, Finland). The cortices were dissected out, and the tissue cut to small pieces. The cells were separated by 15-min incubation with DNase and papain. The cells were collected by centrifugation (1500 rpm, 5 min). The tissue was triturated with a pipette and the cells were plated on poly-L-lysine-coated 48-well plates, 300,000 cells/cm^2, in MEM (2 g/L glucose) supplemented with 2 mM glutamine, 0.1 μg/ml gentamicin, 10% heat-inactivated fetal bovine serum (FBS-HI) and 10% heat-inactivated horse serum (HS-HI). After 3-4 h, the media were changed to MEM (2 g/L glucose) supplemented with 2 mM glutamine, 0.1 μg/ml gentamicin, 5% HS-HI. After three days in vitro, media containing MEM (2 g/L glucose) supplemented with glutamine, gentamicin, and 5% of both sera were changed to the cells. On day 6 in vitro, the unwanted cell division was inhibited by adding cytosine arabinoside (10 μM final concentration) for 24 h. The cultures were refed with MEM (2 g/L glucose) supplemented with glutamine, gentamicin, and 5% HS-HI before experiments.\n(§3) Aβ1-42 Exposure. Tissue kallikrein (SEQ ID NO:1) was dissolved and further diluted in MEM supplemented with glucose, glutamine, gentamicin, and 5% HS-HI. As a control for total neuronal death, 300 μM N-methyl-D-aspartic acid (NMDA) for 48 h was used, and 10 μM Aβ1-42 for 48 h was used to induce approximately 30-50% cell death. Wells treated with media only served as 0-control. Tissue kallikrein or vehicle was pipetted to the cells −24 h and −30 min before adding 10 μM Aβ1-42 (final concentration). Tissue kallikrein or vehicle was again pipetted to the cells at +24 h after exposure.\nLDH Measurement. After 48 h, the culture media of all wells were collected, and possible cell debris was removed by centrifugation (13,000 rpm for 3 min). A 100 μl aliquot was pipetted into a microtiter plate as duplicates, and equal amount of LDH reagent was pipetted to the wells. The absorbance at 340 nm was measured immediately using a 3 min kinetic measurement protocol in Multiskan ELISA reader (Labsystems, Finland). The change in absorbance/min was determined, which was directly proportional to the released LDH. The remaining supernatant (50 μl) was snap-frozen in dry ice for storage.\n(§4) Data Analysis. The number of wells per compound concentration used was 6 (n=6). Five concentrations of Tissue kallikrein were studied (0.001, 0.01, 0.1, 1, 10 μg/ml) in both study arms. Statistical analysis was performed using StatsDirect statistical software. The values were analyzed by one-way ANOVA followed by Dunnet's test (comparison to the vehicle-treated group). Results are presented as mean±standard deviation (SD) and differences are considered to be statistically significant at the P<0.05 level."}, "[2]": {"system": "rat mixed cortical cultures (RMCC)", "assay": "Aβ1-42 toxicity in rat mixed cortical cultures, neuronal survival (NeuN cell count)", "format": "cell-based", "method": "as §1, §2, §3\nImmunocytochemistry for Neuronal Survival. For neuronal counts, the cultures were fixed with 4% paraformaldehyde in 0.01 M PBS for 30 min and washed twice with PBS. The fixed cells were first permeabilized, and non-specific binding blocked by 30 min incubation with blocking buffer containing 1% bovine serum albumin and 0.3% Triton® X-100 in PBS. Anti-neuronal nuclei antibody (anti-NeuN, dilution 1:500, Chemicon, Temecula, Calif.) was used as the primary antibody. The cells were incubated with the primary antibody for 48 h, followed by incubation with a biotinylated secondary antibody (1:200, Vector Labs) for 2 h, and the avidin-biotin-peroxidase complex (ABC-reagent, 1:200, Vector ABC Elite Kit, Vector Labs) for 2 h. The positive cells were visualized using Ni-enhanced DAB as a substrate (DAB Substrate kit, Vector Labs). The NeuN immunopositive neurons were counted using a light microscope. Altogether, 2 fields of each well were counted. The results are shown as percent viable neurons.\nas §4, with “Five concentrations of Tissue kallikrein were studied (0.001, 0.01, 0.1, 1, 10 μg/ml) in both study arms.” left out"}}, "data": [{"molecule": "tissue kallikrein: serine protease that cleaves kininogen into kallidin; polypeptide SEQ ID NO:1 (Sus scrofa kallikrein 1), KLK1 from Sigma (protein, listed as Sus scrofa, 125I label in one form) MWSLVMRLALSLAGTGAAPPIQSRIIGGRECEKDSHPWQVAIYHYSSFQCGGVLVDPKWVLTAAHCKNDNYQVWLGRHNLFENEVTAQFFGVTADFPHPGFNLSLLKNHTKADGKDYSHDLMLLRLQSPAKITDAVKVLELPTQEPELGSTCQASGWGSIEPGPDDFEFPDEIQCVELTLLQNTFCADAHPDKVTESMLCAGYLPGGKDTCMGDSGGPLICNGMWQGITSWGHTPCGSANKPSIYTKLIFYLDWINDTITENP", "values": [{"measurement": "LDH release following Aβ1-42 insult", "setting": "[1]; 10 μg/ml, Study Arms A, B and C (all three treatment arms), FIG. 7", "value": "statistically significant reduction of LDH release"}, {"measurement": "LDH release following Aβ1-42 insult", "setting": "[1]; Study Arm A (-24 h and -30 min), 10 μg/ml, 10 μM Aβ1-42", "value": "significantly reduced LDH release"}, {"measurement": "LDH release following Aβ1-42 insult", "setting": "[1]; Study Arm A (-24 h and -30 min), 0.001, 0.01, 0.1 and 1.0 μg/ml, 10 μM Aβ1-42", "value": "did not alter LDH release"}, {"measurement": "LDH release following Aβ1-42 insult", "setting": "[1]; Study Arm B (-30 min and +24 h), 1.0 μg/ml", "value": "reduced LDH release"}, {"measurement": "LDH release following Aβ1-42 insult", "setting": "[1]; Study Arm B (-30 min and +24 h), 10 μg/ml", "value": "statistically significant reduction of LDH release"}, {"measurement": "LDH release following Aβ1-42 insult", "setting": "[1]; Study Arm B (-30 min and +24 h), 0.001, 0.01 and 0.1 μg/ml, 10 μM Aβ1-42", "value": "did not alter LDH release"}, {"measurement": "cell counts (survival) after Aβ1-42 insult", "setting": "[2]; Study Arm A, 1.0 μg/ml", "value": "provided protection"}, {"measurement": "cell counts (survival) after Aβ1-42 insult", "setting": "[2]; Study Arm A, 10 μg/ml", "value": "protection provided by 10 μg/ml was statistically significant"}, {"measurement": "cell counts (survival) after Aβ1-42 insult", "setting": "[2]; Study Arm A, lower concentrations", "value": "did not affect cell counts"}, {"measurement": "cell counts (survival) after Aβ1-42 insult", "setting": "[2]; Study Arm B, 1.0 μg/ml", "value": "Increases in cell counts"}, {"measurement": "cell counts (survival) after Aβ1-42 insult", "setting": "[2]; Study Arm B, 10 μg/ml", "value": "protection provided by 10 μg/ml was statistically significant"}, {"measurement": "cell counts (survival) after Aβ1-42 insult", "setting": "[2]; Study Arm B, lower concentrations", "value": "did not affect cell counts"}]}]}
